Experimental data reported in patent publication US20030207290A1.
“And” between values parts separate entries of the source, which are not always exact repeats. Equal values may be shown once. Read-outs that look alike come from different tables or passages of the source.

How the values were obtained:
[1] = molecular target: T1, EGFR-pY1068 phosphopeptide, LPVPE(p)…; experiment: ECL 7-spot plate screen, peptide-BSA spot, biotinylated TnT protein, Ru-streptavidin; signal normalized in two steps
T1 sequence (peptide, phosphotyrosine at (p)Y (residue 6 of the printed peptide; EGFR Tyr1068)): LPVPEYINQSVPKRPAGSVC

[2] = molecular target: EGFR-pY1148 phosphopeptide, …(p)…; experiment: as above
[3] = molecular target: EGFR-pY992 phosphopeptide, DADE(p)…; experiment: as above
Chain of EGFR-pY992 phosphopeptide, DADE(p)… (peptide, as listed by the source): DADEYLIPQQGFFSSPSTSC

[4] = molecular target: IkBa phosphopeptide (IkBa-24pp), …(p)SGLD(p)SMKDEEYC; experiment: ECL plate binding assay: peptide-BSA on electrode, biotinylated TnT protein, Sulfo-TAG streptavidin
Chain of IkBa phosphopeptide (IkBa-24pp), …(p)SGLD(p)SMKDEEYC (peptide, as listed by the source): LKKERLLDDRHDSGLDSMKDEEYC

[5] = molecular target: c-Myc phosphopeptide (Myc-p58Tp62S), …(p)TPPL(p)SPSRRSGL; experiment: as above
Chain of c-Myc phosphopeptide (Myc-p58Tp62S), …(p)TPPL(p)SPSRRSGL (peptide, as listed by the source): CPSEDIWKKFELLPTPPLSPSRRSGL

[6] = molecular target: IkBa phosphopeptide (IkBa-24pp), …(p)SGLD(p)SMKDEEYC; experiment: ECL 4-spot multi-array binding assay: peptide-BSA spot
[7] = molecular target: T1, EGFR-pY1068 phosphopeptide, LPVPE(p)…; experiment: ECL 4-spot multi-array binding assay: peptide-BSA spot, biotinylated TnT protein, Sulfo-TAG streptavidin
[8] = molecular target: IkBa phosphopeptide (IkBa-24pp), …(p)SGLD(p)SMKDEEYC; experiment: as above
[9] = molecular target: EGFR-pY1148 phosphopeptide, …(p)…; experiment: as above
[10] = molecular target: IkBa phosphopeptide (IkBa-24pp), …(p)SGLD(p)SMKDEEYC; experiment: ECL 7-spot plate screen, peptide-BSA spot, biotinylated TnT protein, Ru-streptavidin; signal normalized in two steps
[11] = molecular target: c-Myc phosphopeptide (Myc-p58Tp62S), …(p)TPPL(p)SPSRRSGL; experiment: as above
BSA (control coating) = BSA (control coating) (UniProt P02769); experiment: ECL plate binding assay: BSA control on electrode, biotinylated TnT protein, Sulfo-TAG streptavidin
Chain of BSA (control coating) (P02769 25-607 limits assumed): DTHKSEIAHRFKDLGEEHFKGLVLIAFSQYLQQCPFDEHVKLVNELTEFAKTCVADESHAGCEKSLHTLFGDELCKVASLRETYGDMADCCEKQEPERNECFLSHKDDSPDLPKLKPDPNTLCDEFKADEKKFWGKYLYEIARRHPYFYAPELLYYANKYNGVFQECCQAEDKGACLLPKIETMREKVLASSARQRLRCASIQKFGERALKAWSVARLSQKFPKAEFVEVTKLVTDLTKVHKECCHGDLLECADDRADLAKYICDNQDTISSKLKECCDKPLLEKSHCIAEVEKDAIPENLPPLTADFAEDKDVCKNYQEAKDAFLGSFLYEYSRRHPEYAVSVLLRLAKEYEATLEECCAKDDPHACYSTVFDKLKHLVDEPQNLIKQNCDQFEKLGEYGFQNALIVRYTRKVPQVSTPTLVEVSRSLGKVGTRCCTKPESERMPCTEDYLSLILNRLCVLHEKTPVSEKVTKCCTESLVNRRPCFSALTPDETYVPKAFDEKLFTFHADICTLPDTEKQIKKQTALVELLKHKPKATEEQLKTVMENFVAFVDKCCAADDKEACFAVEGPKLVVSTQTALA

[12] = molecular target: EGFR-pY992 phosphopeptide, DADE(p)…; experiment: ECL 4-spot multi-array binding assay: peptide-BSA spot, biotinylated TnT protein, Sulfo-TAG streptavidin
[13] = molecular target: phosphorylated EGFR (Sigma Chemical Co, self-phosphorylated) (UniProt P00533); experiment: TnT protein on streptavidin plate, […] phosphorylated EGFR; bound EGFR detected by its kinase activity on pEY, 12 hr reaction
[14] = molecular target: phosphorylated EGFR (Sigma Chemical Co, self-phosphorylated) (UniProt P00533); experiment: TnT protein on streptavidin plate, […] phosphorylated EGFR; bound EGFR detected with TAG-labeled anti-EGFR (clone 225)
[15] = molecular target: phosphorylated EGFR (Sigma Chemical Co, self-phosphorylated) (UniProt P00533); experiment: TnT protein on streptavidin plate, […] phosphorylated EGFR; bound EGFR detected by its kinase activity on pEY, 1 hr reaction

Chain of βTRCP1 (EST clone IMAGE 3491843), in vitro translated, biotin-labelled (Q9Y297 whole entry): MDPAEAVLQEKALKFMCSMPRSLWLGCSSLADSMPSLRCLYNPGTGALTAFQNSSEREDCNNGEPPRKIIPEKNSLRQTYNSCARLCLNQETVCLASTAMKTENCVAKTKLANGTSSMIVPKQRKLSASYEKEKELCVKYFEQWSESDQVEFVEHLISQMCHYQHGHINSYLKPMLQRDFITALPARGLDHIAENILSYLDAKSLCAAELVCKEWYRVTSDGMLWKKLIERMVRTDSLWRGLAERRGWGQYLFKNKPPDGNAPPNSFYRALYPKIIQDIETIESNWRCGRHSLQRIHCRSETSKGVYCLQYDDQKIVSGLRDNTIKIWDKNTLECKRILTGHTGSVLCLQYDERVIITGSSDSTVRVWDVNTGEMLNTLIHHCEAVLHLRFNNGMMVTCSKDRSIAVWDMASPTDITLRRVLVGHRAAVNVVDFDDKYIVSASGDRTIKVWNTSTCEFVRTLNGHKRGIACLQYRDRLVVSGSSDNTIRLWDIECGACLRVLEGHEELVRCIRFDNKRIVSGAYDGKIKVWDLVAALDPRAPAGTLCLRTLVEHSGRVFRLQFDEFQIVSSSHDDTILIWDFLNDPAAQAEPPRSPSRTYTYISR
Chain of βTRCP2 (EST clone IMAGE 4237375), in vitro translated, biotin-labelled (Q9UKB1 whole entry): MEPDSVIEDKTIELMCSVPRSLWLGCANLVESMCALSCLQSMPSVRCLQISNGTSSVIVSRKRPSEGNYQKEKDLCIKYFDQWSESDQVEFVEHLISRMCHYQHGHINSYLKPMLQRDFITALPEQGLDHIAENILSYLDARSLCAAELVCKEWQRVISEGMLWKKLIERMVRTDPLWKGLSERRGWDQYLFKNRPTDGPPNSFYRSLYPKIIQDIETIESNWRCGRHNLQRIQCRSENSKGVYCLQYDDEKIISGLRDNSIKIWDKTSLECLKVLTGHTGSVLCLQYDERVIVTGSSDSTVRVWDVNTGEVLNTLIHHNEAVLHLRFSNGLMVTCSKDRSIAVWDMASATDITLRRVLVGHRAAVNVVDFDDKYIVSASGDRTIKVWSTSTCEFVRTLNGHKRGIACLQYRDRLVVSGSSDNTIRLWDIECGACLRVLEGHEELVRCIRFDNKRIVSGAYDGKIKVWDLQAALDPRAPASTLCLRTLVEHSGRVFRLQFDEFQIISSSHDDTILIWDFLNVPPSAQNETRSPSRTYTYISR

Row | Substance | normalized ECL signal [1] | normalized ECL signal [2] | normalized ECL signal [3] | Average ECL signal [4] | Average ECL signal [5] | fold ECL signal over TnT reaction without exogenous DNA [6] | ECL signal [7] | ECL signal [8] | ECL signal [9] | normalized ECL signal [10] | normalized ECL signal ([10]; positive control preparation) | normalized ECL signal [11] | Average ECL signal (BSA (control coating)) | ECL signal [12] | ECL signal [13] | ECL signal [14] | ECL signal [15]
1 | Shc (EST clone IMAGE 3911953), in vitro translated, biotin-labelled (from UniProt P29353 1-473) | 1 | 3 | 1 | – | – | – | – | – | – | – | – | – | – | – | – | – | –
2 | Shc (EST clone IMAGE 3914467), in vitro translated, biotin-labelled (from UniProt P29353 1-473) | 1 | 3 | 1 | – | – | – | – | – | – | – | – | – | – | – | – | – | –
3 | βTRCP1 (EST clone IMAGE 3491843), in vitro translated, biotin-labelled (from UniProt Q9Y297 1-605) | – | 1 | – | 40900 ECL signal | 2120 ECL signal | 100 fold | 24 ECL signal | 2470 ECL signal | 36 ECL signal | 12 | 23 | 8 and 4 | 1720 ECL signal | – | – | – | –
4 | mCBP (EST clone IMAGE 3872466), in vitro translated, biotin-labelled | – | – | – | 371 ECL signal | 351 ECL signal | – | 126 ECL signal | 446 ECL signal | 278 ECL signal | – | – | – | 352 ECL signal | 498 ECL signal | – | – | –

The remaining lines, values ahead:

Row | normalized ECL signal [1] | normalized ECL signal [2] | normalized ECL signal [3] | Average ECL signal [4] | Average ECL signal [5] | fold ECL signal over TnT reaction without exogenous DNA [6] | ECL signal [7] | ECL signal [8] | ECL signal [9] | normalized ECL signal [10] | normalized ECL signal ([10]; positive control preparation) | normalized ECL signal [11] | Average ECL signal (BSA (control coating)) | ECL signal [12] | ECL signal [13] | ECL signal [14] | ECL signal [15] | Substance
5 | – | 1 | – | 21500 ECL signal | 896 ECL signal | 100 fold | 24 ECL signal | 5040 ECL signal | 35 ECL signal | – | – | 10 | 672 ECL signal | – | – | – | – | βTRCP2 (EST clone IMAGE 4237375), in vitro translated, biotin-labelled (from UniProt Q9UKB1 1-542)
6 | 1 | 5 | 1 | – | – | – | – | – | – | – | – | – | – | – | – | – | – | Shc (EST clone IMAGE 3909921), in vitro translated, biotin-labelled (from UniProt P29353 1-473)
7 | 55 | 4 | 10 | – | – | – | 1480 ECL signal | – | 110 ECL signal | – | – | – | – | 1400 ECL signal | 39800 ECL signal | 30400 ECL signal | 18000 ECL signal | Phospholipase C gamma 1 (PLCγ) (EST clone IMAGE 4419252), in vitro translated, biotin-labelled (from UniProt P19174 1-1290) (enzyme)
8 | 1 | 3 | 1 | – | – | – | – | – | – | – | – | – | – | – | – | – | – | Shc (EST clone IMAGE 3909654), in vitro translated, biotin-labelled (from UniProt P29353 1-473)
